Kd data for two substances are collected here from paper PMC10847126.

As usually defined, the Kd is the concentration at which binding is half-saturated.

Test [1] has as its target RGA5-HMA (labelled, MST) (rice) (UniProt F7J0N2). The experiment in a line: MST; […]; 20 mM PBS, 150 mM NaCl, 0.05% Tween-20, pH 7.4; […].
The target in test [2] is RGA5-HMA5 (recombinant, MST and HDX-MS) (rice) (UniProt F7J0N2). Described as above.

For the substance “AVR-Pia (recombinant, MST) (from UniProt B9WZW9) (natural protein; other documents disagree on this pair)”, the Kd in test [1] was 35 µM.

In the case of “AVR-PikD (recombinant, MST and HDX-MS) (natural protein)”, the Kd in test [2] was determined as 12 µM.
